Laboratory results as given in patent US11419948B2, “Functionalized microgels with fibrin binding elements” (Georgia Tech Research Corporation, priority 2013, dated 2022).

B1: PLPs: ultra-low crosslinked pNIPAm-AAc microgels conjugated to fibrin-specific sdFv H6 (conjugate)
VH: QVQLLESGGGLVQPGGSLRLSCAASGDRFTHNDMGWVRQAPGKGLEWVSTIPTTDGSTYYADSVKGRFTISRDNSKSTLYLQMNSLRAEDTAVYYCATGYMWKAPAYVKYWGQGTLVTVSSAAAEQKLISEEDLNSAAHYTDIG
B2: H6: fibrin-specific human sdFv clone from phage biopanning, SEQ ID NO: 1 (protein)
VHH: B1 VH

Columns and labels:
[1] = test system: platelet poor plasma (PPP); test: Dynamic in vitro clotting in endothelialized microfluidic device; format: biochemical, human; conditions: platelet-poor plasma under flow
Protocol: To characterize the effect of microgels on clotting in vitro, a endothelialized microfluidics device that accurately recapitulates the cellular, physical, and hemodynamic environment of microcirculation, was used as previously described, Jackson, et al., Journal of Thrombosis and Haemostasis: JTH 7 Suppl 1:17-20 (2009). For these experiments, clotting of platelet poor plasma (PPP) was analyzed in the absence or presence of fibrin-binding microgels of varying degrees of crosslinking in real time using confocal microscopy. As a control, clotting of platelet rich plasma (PRP) or PPP in the presence of non-fibrin binding microgels were also investigated. Microgels or buffer were added to PPP immediately prior to injection into the microfluidics device. To visualize clotting, PPP was spiked with Alexa Fluor-488 labeled fibrinogen. Endothelial cells were stained with Cell Mask Deep Red (Invitrogen) and microgels were labeled with Alexa Fluor 546. For experiments utilizing PRP, platelets were stained with Cell Mask Red (Invitrogen). Samples were flowed at 1.1 μL/min and imaged continuously for 20 min. Clotting overtime was characterized through imaging processing with Image J (NIH). Each microfluidic device is comprised of three regions of different flow rates, comprising four endothelialized channels.

platelet-poor plasma = test: Gross clot contraction of platelet-poor plasma clots; format: biochemical
Description: Clot collapse was characterized at the macroscopic level by performing standard gross clot contraction experiments routinely utilized by platelet biologists, Thomas, et al., BMC Cell Biology, 8:46 (2007); Suzuki-Inoue, et al., Thrombosis Research, 120:251-258 (2007). It was expected that particle deformability would play a large role in the ability of fibrin-binding microgels to induce gross clot deformation and architectural changes. Clots were created through the addition of 1 U/mL thrombin (final concentration) to platelet-poor plasma containing microgels of varying crosslinking. Clot collapse was observed within 48 hours in the presence of PLPs but not under any other conditions tested (FIG. 4B). […] Because natural platelet mediated contraction decreases clot degradation rates, we analyzed clot degradation rates in the absence or presence of PLPs. […] Because clot contraction was not observed in the presence of non-fibrin binding ULC microgels or in the presence of fibrin-binding BIS crosslinked microgels or hard PS particles, we conclude that, while enhancement of clotting in vitro only requires high affinity and multivalency for fibrin, particle deformability is critical to the ability of fibrin-binding particles to induce clot collapse. To fully recapitulate the hemostatic functions of platelets (enhancement of dotting and clot contraction following hemostasis) it appears that both high fibrin affinity and high particle deformability are required.

fibrin E Regions = test: ELISA against adsorbed fibrin E Regions; format: binding; conditions: E Region dilutions
Protocol: This was determined through ELISAs against plates coated with adsorbed fibrin D-Dimers or E Regions.
ELISA set-up and analysis was identical to that performed for the plasma-binding ELISA, the main exception being a substitution of human plasma dilutions for D-Dimer or E Region dilutions adsorbed to the 96-well plates. Both D-Dimer and […]

BSA = BSA (Bos taurus, UniProt P02769); test: SPR on BSA surface; format: binding
Description: FIG. 2A is an SPR sensorgram of thin fibrin layer immobilized on surface the SPR channel via NHS/EDC activated carboxylic acid terminated SAM with subsequent injections of fibrinogen (1), ethanolamine quencher (2), HEPES buffer+Tween 20 (3), thrombin (4), and fibrinogen+anti-thrombin+heparin (5). FIGS. 2B-2K are representative SPR sensorgrams of scFvs on fibrin layer (FIGS. 2B-2F) or BSA surface (FIGS. 2G-2K) for clones A2 (FIGS. 2B and 2G), A6 (FIGS. 2C and 2H), H6 (FIGS. 2D and 2I), B3 (FIGS. 2E and 2J), or non-specific control (FIGS. 2F and 2K). Experimental data is shown in black and fits are shown in dotted line.
Based on previous SPR protocols developed in the lab^4, a thin fibrin layer was immobilized on the surface of a gold SPR chip via layer-by-layer deposition of fibrinogen-thrombin-fibrinogen^3. SdFvs were flowed across the fibrin surface and the binding interactions were evaluated and recorded. Additionally, antibody fragment binding interactions with a surface of immobilized fibrinogen was used to investigate the specificity to fibrin. All SPR data was examined and analyzed with Scrubber 2 and Clamp XP (Center for Biomolecular Interactions Analysis, University of Utah). Data simulation curves were generated based on a Langmuir 1:1 binding model assuming only a single ligand-analyte interaction.

Chain of BSA (P02769 25-607): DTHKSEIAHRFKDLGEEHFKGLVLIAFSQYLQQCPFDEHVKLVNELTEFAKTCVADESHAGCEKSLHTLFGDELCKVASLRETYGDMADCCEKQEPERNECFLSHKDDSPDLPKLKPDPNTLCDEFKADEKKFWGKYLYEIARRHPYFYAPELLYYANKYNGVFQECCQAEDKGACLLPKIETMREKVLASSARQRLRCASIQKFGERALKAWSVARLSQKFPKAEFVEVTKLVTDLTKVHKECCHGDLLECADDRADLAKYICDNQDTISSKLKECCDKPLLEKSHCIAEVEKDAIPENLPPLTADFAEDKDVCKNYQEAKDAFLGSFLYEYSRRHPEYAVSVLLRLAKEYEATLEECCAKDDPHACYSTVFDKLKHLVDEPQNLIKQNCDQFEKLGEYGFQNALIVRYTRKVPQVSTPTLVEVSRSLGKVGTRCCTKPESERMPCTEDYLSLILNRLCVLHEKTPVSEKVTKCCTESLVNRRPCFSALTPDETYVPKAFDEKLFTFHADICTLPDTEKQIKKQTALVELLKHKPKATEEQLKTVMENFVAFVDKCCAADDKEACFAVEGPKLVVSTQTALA

Molecule	fibrin clot formation in response to thrombin [1]	overall degree of clot contraction (platelet-poor plasma; platelet-poor plasma with particles versus native platelet-rich plasma)	time to clot collapse (platelet-poor plasma; platelet-poor plasma, 1 U/mL thrombin) [h]	rate of induced clot collapse (platelet-poor plasma; versus native platelet-containing clots)	binding to E Region (fibrin E Regions)	binding to BSA (BSA)
B1	successfully rescued fibrin clot formation	No significant differences	≤ 48	significantly less	–	–
B2	–	–	–	–	negligible binding	negligible binding
